From paper PMC5748854 (The Journal of Experimental Medicine, 2018)

Target: C-PfCSP (recombinant PfCSP C terminus, linker and αTSR subdomains) (Plasmodium falciparum NF54, UniProt P19597)
Experiment: ELISA

- binding result: binds
B1: 1710 IgG (antibody, V domains shown)
VH: EVQLQESGGGLVKPGGSLRLSCAASGFTFSSYSMNWVRQAPGKGLEWVSSITSSSSYIYYADSVKGRFTISRDNAKNSLYLQMNSLRAEDTAVYYCARDPGIAAADNHWFDPWGQGTLVTVSS
VL: not shown
